Laboratory results: article PMC4837182, “Plasmodium falciparum Hsp70-z, an Hsp110 homologue, exhibits independent chaperone activity and interacts with Hsp70-1 in a nucleotide-dependent fashion” (Cell Stress & Chaperones, 2016)

Assays:
[1] = target: T1, recombinant Plasmodium falciparum Hsp70-z (PfHsp70-z) (Plasmodium falciparum); assay: SPR; ProteOn XPR36, ligand amine-coupled to GLC chip, analyte 125-2000 nM at 50 μl/min, PBS-Tween with 20 mM EDTA pH 7.4, 25 °C, Langmuir fit; with 5 mM ADP; conditions: both partners purified
T1 construct: also called PfHsp110c; PfHsp110; not shown: His6, N-terminal, kept

[2] = target: T1, recombinant Plasmodium falciparum …; assay: SPR; ProteOn XPR36, ligand amine-coupled to GLC chip, analyte 125-2000 nM at 50 μl/min, PBS-Tween with 20 mM EDTA pH 7.4, 25 °C, Langmuir fit; with 5 mM ATP; conditions: both partners purified

B1: nucleotide binding domain of PfHsp70-1 (PfHsp70-1NBD) (domain or fragment)
chain: not shown
modifications: assayed without nucleotide or with ADP/ATP; N-terminal His6 tag from pQE30 left out. Locus PF3D7_0818900 (cytosolic PfHsp70-1, UniProt Q8IB24) is from memory, not given; NBD limits are
- Kd [1]: 98.6 nM
- koff [1]: 0.00026 s⁻¹
- kon [1]: 2630 M⁻¹ s⁻¹
- Kd [2]: 2.12 nM
- koff [2]: 9.43e-06 s⁻¹
- kon [2]: 4460 M⁻¹ s⁻¹
